# Residue numbers refer to the chain shown, from its start. In names and notes the source's numbering stands.
# T1: PTg S5 subunit (Bordetella pertussis, UniProt P04981 35-133)
# T1 sequence: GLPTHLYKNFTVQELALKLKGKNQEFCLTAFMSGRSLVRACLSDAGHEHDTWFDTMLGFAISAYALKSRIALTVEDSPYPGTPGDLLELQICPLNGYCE
# B1: hu1B7mut IgG (hu1B7 heavy chain S56A, Q61A, Q64A) (antibody, V domains shown)
# VH: QVQLVQSGAEVKKPGASVKVSCKASGYKFTSYWMHWVRQAPGQGLEWIGNIFPGSGATNYAAKFAGRVTLTVDTSTSTAYMELSSLRSEDTAVYYCTRWLSGAYFDYWGQGTTVTVSS
# VL: QIVLTQSPATLSVSPGERVTLTCSASSSVSFMYWYQQKPGRAPKPLIYLTSNLPSGVPARFSGSGSGTSYTLTINSLEAEDAATYYCQQWSSHPPTFGSGTKLEIK
# B2: hu1B7 Fab (Fab, V domains shown)
# VH: B1 VH with A57S, A62Q, A65Q
# VL: B1 VL
# B3: hu1B7 IgG (antibody, V domains shown)
# VH: B1 VH with A57S, A62Q, A65Q
# VL: B1 VL
# B4: PTg S1 subunit ([change], [change]) (natural protein)
# chain: DDPPATVYKYDSRPPEDVFQNGFTAWGNNDNVLDHLTGRSCQVGSSNSAFVSTSSSRRYTEVYLEHRMQEAVEAERAGRGTGHFIGYIYEVRADNNFYGAASSYFEYVDTYGDNAGRILAGALATYQSGYLAHRRIPPENIRRVTRVYHNGITGETTTTEYSNARYVSQQTRANPNPYTSRRSVASIVGTLVRMAPVIGACMARQAESSEAMAAWSERAGEAMVLVYYESIAYSF
# B5: hu11E6 Fab (Fab, V domains shown)
# VH: EVQVVESGGGLVQPGRSLRLSCTTSGFTFTDYYVSWVRQAPGKALEWLGFIRNKVNGYTTEFSSSVKGRFTISRDNSKSILYLQMNSLKIEDTAVYYCARVSYYGRGWYFDYWGQGTTLTVSS
# VL: DIVMTQSPSSLSASVGDRVTISCRASQDIDNYLSWFQQKPGGTVKLLIYYTSRLHSGVPSRFSGSGSGTDYTLTISSLQPEDIATYFCQQGNTFPWTFGGGTKLEIK
# What was measured:
# [1] = biological target: Pertussis toxin (PT), enzymatically active (Bordetella pertussis; strain of bought …, UniProt P04977;P04978;P04979;P0A3R5;P04981); assay: ELISA
# [2] = biological target: PTg S5 subunit (Bordetella pertussis, UniProt P04981); assay: cryo-EM structure
# [3] = biological target: T1, PTg S5 subunit; assay: cryo-EM structure
# [4] = biological target: PTg S3 subunit (Bordetella pertussis, UniProt P04979); assay: cryo-EM structure
# [5] = biological target: PTg S2 subunit (Bordetella pertussis, UniProt P04978); assay: cryo-EM structure
# Sequence of PTg S2 subunit (P04978 28-226): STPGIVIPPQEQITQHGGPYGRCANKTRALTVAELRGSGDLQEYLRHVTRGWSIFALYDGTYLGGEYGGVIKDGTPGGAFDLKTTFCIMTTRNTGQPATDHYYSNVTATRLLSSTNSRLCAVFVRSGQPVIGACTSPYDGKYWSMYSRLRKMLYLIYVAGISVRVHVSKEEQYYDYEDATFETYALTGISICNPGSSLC
# Sequence of Pertussis toxin (PT), enzymatically active (P04978 28-226, chain 2 of 3): as the sequence (P04978 28-226) above
# Sequence of Pertussis toxin (PT), enzymatically active (P04979 29-227, chain 3 of 3): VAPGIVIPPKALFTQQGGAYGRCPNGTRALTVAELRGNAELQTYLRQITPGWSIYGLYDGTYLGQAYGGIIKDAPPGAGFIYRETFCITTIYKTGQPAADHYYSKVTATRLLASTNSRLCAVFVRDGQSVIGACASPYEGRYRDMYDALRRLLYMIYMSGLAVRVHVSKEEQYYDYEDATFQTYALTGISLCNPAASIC
# Sequence of Pertussis toxin (PT), enzymatically active (P0A3R5 43-152, chain 4 of 3): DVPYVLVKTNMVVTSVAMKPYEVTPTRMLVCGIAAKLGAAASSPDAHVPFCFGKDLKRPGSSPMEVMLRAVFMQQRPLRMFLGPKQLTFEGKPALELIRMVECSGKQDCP
# Sequence of PTg S3 subunit (P04979 29-227): as the sequence (P04979 29-227, chain 3 of 3) above
binder,measurement,setting,value
B1,binding result,[1],binds
B2,binding result,[2],binds
B3,binding result,[1],binds
B4,binding result,[3],binds
B5,binding result,[4],binds
same,binding result,[5],binds

# From article PMC11463501 (bioRxiv, 2024)
